Source: PMC11535475 (2024)

Tests used:
Experiment in all cases: activation reporter or marker
[1] = target: SARS-CoV-2 N protein peptide on HLA-A*11:01 (human)
[2] = target: T1, SARS-CoV-2 N protein peptide on HLA-A*11:01 (human)
T1 peptide: ATEGALNTPK

[3] = target: T2, SARS-CoV-2 N protein peptide on HLA-A*11:01 (human)
T2 peptide: QQQQGQTVTK

B1: TCR-17 (TCR)
alpha TRAV29/DV5 TRAJ30 CDR3: CAARTGDDKIIF
beta TRBV10-3 TRBJ1-5 CDR3: CAINKQGFNQPQHF
- binding result [1]: recognises

B2: TCR-22 (TCR)
alpha TRAV19 TRAJ49 CDR3: CALSEALNTGNQFYF
beta TRBV3-1 TRBJ1-6 CDR3: CASSQVAYSPLHF
- binding result [1]: recognises

B3: TCR-20 (TCR)
alpha TRAV13-1 TRAJ47 CDR3: CAAIQEYGNKLVF
beta TRBV5-5 TRBJ2-2 CDR3: CASSPRTLFTGELFF
- binding result [1]: recognises

B4: TCR-28 (TCR)
alpha TRAV19 TRAJ54 CDR3: CALSEAYQGAQKLVF
beta TRBV9 TRBJ2-5 CDR3: CASSVGGTVQETQYF
- binding result [2]: recognises

B5: TCR-18 (TCR)
alpha TRAV6 TRAJ45 CDR3: CALDGSGGGADGLTF
beta TRBV7-8 TRBJ1-3 CDR3: CASSPGRSGNTIYF
- binding result [1]: recognises

B6: TCR-37-1 (TCR)
alpha TRAV5 TRAJ5 CDR3: CAESDMDMGRRALTF
beta TRBV7-3 TRBJ2-3 CDR3: CASSRRASGIGTDTQYF
- binding result [1]: recognises

B7: TCR-19 (TCR)
alpha TRAV29/DV5 TRAJ30 CDR3: CAAMSMNRDDKIIF
beta TRBV4-1 TRBJ2-1 CDR3: CASSRLPGLAGGTVVNEQFF
- binding result [1]: recognises

B8: TCR-24 (TCR)
alpha TRAV29/DV5 TRAJ48 CDR3: CAASEAGGNEKLTF
beta TRBV15 TRBJ1-5 CDR3: CATSREQAGQPQHF
- binding result [1]: recognises

B9: TCR-34-1 (TCR)
alpha TRAV14/DV4 TRAJ6 CDR3: CAMREGSKGSYIPTF
beta TRBV28 TRBJ2-7 CDR3: CASRLNPGTVSYEQYF
- binding result [2]: recognises

B10: TCR-29-1 (TCR)
alpha TRAV3 TRAJ33 CDR3: CAVRRLMDSNYQLIW
beta TRBV7-6 TRBJ2-1 CDR3: CASSHGTSGSSHEQFF
- binding result [1]: recognises

B11: TCR-32 (TCR)
alpha TRAV3 TRAJ8 CDR3: CAVRVYTGFQKLVF
beta TRBV9 TRBJ2-3 CDR3: CASSSNLQGADTQYF
- binding result [2]: recognises

B12: TCR-33 (TCR)
alpha TRAV19 TRAJ15 CDR3: CALSEAEAGTALIF
beta TRBV6-2 TRBJ1-2 CDR3: CASSYGSVYGYTF
- binding result [1]: recognises

B13: TCR-03 (TCR)
alpha TRAV38-2/DV8 TRAJ30 CDR3: CAYRSVPLNRDDKIIF
beta TRBV19 TRBJ1-5 CDR3: CASSKSGTGYQPQHF
- binding result [1]: recognises

B14: TCR-09 (TCR)
alpha TRAV29/DV5 TRAJ43 CDR3: CAASPEYNNNDMRF
beta TRBV18 TRBJ2-3 CDR3: CASSRTLGTSGNTQYF
- binding result [1]: recognises

B15: TCR-38-1 (TCR)
alpha TRAV8-6 TRAJ29 CDR3: CAVTTDSGNTPLVF
beta TRBV11-2 TRBJ2-1 CDR3: CASSPAFGEQFF
- binding result [1]: recognises

B16: TCR-10 (TCR)
alpha TRAV29/DV5 TRAJ48 CDR3: CAASDENEKLTF
beta TRBV6-6 TRBJ2-1 CDR3: CASKGGGTSGYEQFF
- binding result [1]: recognises

B17: TCR-08 (TCR)
alpha TRAV19 TRAJ33 CDR3: CALSEAVDSNYQLIW
beta TRBV7-9 TRBJ1-2 CDR3: CASSLRQGPNYGYTF
- binding result [1]: recognises

B18: TCR-23-2 (TCR)
alpha TRAV6 TRAJ21 CDR3: CALWDFNKFYF
beta TRBV27 TRBJ2-5 CDR3: CASSPYSGGQGETQYF
- binding result [3]: recognises
